According to patent US20150051146A1:
Like-named read-outs stand apart in the source and are kept apart here.

How the values were obtained:
pro-HB-EGF on Vero cells [1] = assay: Schild regression from inhibition of diphtheria toxin cytotoxicity on Vero cells
pro-HB-EGF on Vero cells [2] = assay: ratio of Kd values from Schild regression (Vero cytotoxicity)
pro-HB-EGF on Vero cells [3] = assay: Schild regression from inhibition of diphtheria toxin cytotoxicity on Vero cells; remark: listed apart in the source

wild-type DTR protein (DTRWT) (from UniProt P00587 405-560) (ligand)
Kd (pro-HB-EGF on Vero cells [1]): 6.5 nM | fold lower affinity for HB-EGF and pro-HB-EGF against CRM197 (pro-HB-EGF on Vero cells [2]): 2 fold | Kd (pro-HB-EGF on Vero cells [3]): 6.5 nM

CRM197 (natural mutant of diphtheria toxin comprising the G52E mutation) (from UniProt P00587 26-560) (ligand)
Kd (pro-HB-EGF on Vero cells [1]): 3.1 nM | Kd (pro-HB-EGF on Vero cells [3]): 3.1 nM

B1: Clone 1D6 (DTR carrying the mutations Y380K/Q387E/L390T) (designed binder)
chain: MGKSPGHKTEPFTHDGYAVSWNTVEDSIIRTGFQGESGHDIKITAENTPLPIAGVLLPTIPGKLDVNKSKTHISVNGRKIRMRCRAIDGDVTFCRPKSPVYVGNGVHANLHVAFHRSSSEKIHSNEISSDSIGVLGYQKTVDHTKVNSKLSLFFEIKS
Kd (pro-HB-EGF on Vero cells [1]): 0.025 nM
